The target in this assay is HIV gp120 monomer of strain CN97001 (HIV-1, strain CN97001 (paper: clade C); …, UniProt G4XFJ5, strain). Put plainly: BLI.

B1: recombinant bnAb 10-1074 (from pTT3 10-1074 NHP-IgG) (antibody, V domains shown)
VH: QVQLQESGPGLVKPSETLSVTCSVSGDSMNNYYWTWIRQSPGKGLEWIGYISDRESATYNPSLNSRVVISRDTSKNQLSLKLNSVTPADTAVYYCATARRGQRIYGVVSFGEFFYYYSMDVWGKGTTVTVSS
VL: LSVALGETARISCGRQALGSRAVQWYQHRPGQAPILLIYNNQDRPSGIPERFSGTPDINFGTRATLTISGVEAGDEADYYCHMWDSRSGFSWSFGGATRLTVL
B1: the binding result is reported as “binds”.

For the origin of these results see article doi:10.1101/2025.05.02.651933 (bioRxiv, 2025).
